Test results as given in the nanobody polyreactivity screen of Harvey et al. (2022).

test: yeast display, Sf9 membrane polyspecificity reagent, FACS + sequencing; frameworks hold sequencing errors
Procedure, shortened: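 Sorting gates, low and high (top ~1%), were placed on anti-HA fluorescence to track expression and on streptavidin fluorescence to track reagent binding. A clone's polyreactivity label is taken from the gate it came out of. The reagent was 10% biotinylated, detergent-solubilized Sf9 membrane, applied for 1 hour at 4 °C to galactose-induced yeast display cells.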

Sequence	polyreactivity (PSR sort gate)
QVQLVESGGGVDQAGVSLRLSCAASGIICFGYAMGWYRQAPGNERELVARITRSGASTYYADSVKGRFTISRDNAKKTVYLQMYSLTPEDTPVSYCAADYRKRYDYWGQGTQVTVSS	low polyreactivity
QVQLVESGGGVVQAGGSLRLSCAASGRTFPYYTMGWYRQAPGKERELVAAITRSGDSTYYADSVKGRFTISRDNAKNTVYLQMYSLKPEDTAVYYCAADIWSSDYEEFYYWGLGTQVTVSS	low polyreactivity
QVQLVESGGGLVQAGGSLRLRCAASGRIFVENAMGWYRQAPGKERELVATISSGDSTNYADSVKGRFTISRDNAKNTVYLQMNSLKPEDTAVYYCDAADGIIESDYWGQGTQVTVSS	low polyreactivity
QVQLVESGGGLVQAGGSLRLSCAASGSIFSGNAMGWYRQAPGKERELVAAISRSGTSTYYADSVKGRFTISRDNAKNTVYFQMNSLKPEDTAVYYCNARSYYTLRSDFYYWGQGTQVTVSS	high polyreactivity
QVQLVESGGGLVQAGGSLRLSCAASGFTFVYYAMGWYRQAPGKERELVAAIRSGGSTNYADSVKGRFTISRDNAKNTVYLQMNSLKPEDTAVYYCAAAYWKGRLVRYYYWGQGTQVTVSS	high polyreactivity
QVQLVESAGGLVQAGGSLRLSCAASGRIFDRYTMGCYRQAPGKERELVAAITFGGGSTYYADSVKGRFTISRDNAKNTVYLQMNSLKPEDTAVYYCAKQRHGKLGHILGYNYWGQGTQVTVSS	low polyreactivity
QVQLQESGGGLVQAGGSLRMSCAASGSISSRDAMGLYRQAPGKEREFVATIASGTTTYYADSVKGSFTISRDNAENTVYLQTNSLKPEDTAVYYCAAPTIQIYPFYYWGQGTQVTVSS	high polyreactivity
QVQLVESGGGLVQAGGSLRLSCAASGSILSPNAMGWYRQAPGKERELVADISSVGSTYYADSVKGRFTISRDNAKNTVYLQMNSLKPEDTAVYYCAAEFRATDGIGYDYWGQGTHVTVSS	low polyreactivity
QVQIVESGGGLVEAGGSLRLTCAASGSIFGGNAMGWYRQAPGKERELVAAITSTVSTNYADSVKGRFTISRDNAKNTVYLQMNSLKPEDNAVYYCATDTSNVEGDYWGQGTQVTVSS	low polyreactivity
QVQLVESGGGLVQAGGSLRLSCAASGRTFGTNAMGWYRLAPGKEWELVASISGGTRTNYADSVKGRFTISRDNAKNTVYLQMNSLKPEDTAVYSCAAEVGLPTWYTLPVDDYDYWGQGTQVTVSS	low polyreactivity
QVQLVESGGGLVQAGGSLRLSCAASGSIFAAYAMGWYRQAPGKERELVAAITSGGGTYYADSVKGRFTISRDNAKNTVYLQMNSLKPEDTAGYYCNAGNTYNRVIWPYYYWGQGTQVTVSS	high polyreactivity
QVQLVESGGGLVQAGGSLRLSCAASGTTFSYNAIVWYRQAPGKERELVAAISGSGGTTYYADSVKGRFTISRDNAKNTVYLEMNSLKPEDTAVYYCDARPFRSWRYDYWGQGTQVTVSS	low polyreactivity
QVQLVESGGGLVQAGGSLRLSCAASGSTFDTYAMGWYRPAPGKERELVAAINSGGGTNYADSVKGLFTISRDNAKNTVYLQMNSLKPEDSSVYYCSTDIRRDAGGVDFDYWGQGTQLTVSS	low polyreactivity
HVQLVESGGGLVQAGGSLRLSCAASGSIFVSYGMGWYRQAPGKEWELVASISNSAGSTYYADSVKGRFTISRDNAQNTVYLQMNSLKPDDTAVYSCAADYWVWAYGGYDAYNYWGQGTQVTVSS	high polyreactivity
QVQLVESGGGLVQAGGSLRLSCAASGRTFRGYALGWYRQAPGKERELVAAISGGTTNYADSVKGRFTISRDNAKNTVYLQMNSLKPVDTAVYYCAAAQRQYWRYRLGYEYGSWGQGTQVTVSS	low polyreactivity
QVQLVESGGGLVQAGGSLRLSCAASGSIFGQNAMGWYRQAPGKEREMVDAITSGAGITYYADSVKGRFTISRDNAKNTVYLQMNSLKPEDTAVYYCNAVPSWSPSALFDYWGQGTQVTVAS	low polyreactivity
QVQLVESGGGLVQAGGSLRLSCAASGYIFNVYAMGWYRQAPGKESELVAAISTSGGSTYYADSVKGRFSISRDNAKNTVYLQMNSLKPEDTAVYYCAAKSTLSRSHKSDYWGQGTQVTVSS	high polyreactivity
QVQLVESGGGLVQAGGSLRLSCAASGSIFAVYAMGWYRQAPGKERELVAVITRSGGSTYYADSVKGRFTISRDNAKNTVYLQMNSLKPEDTAVYYCAARRSYLLRYDYWGQGTQVTVSS	high polyreactivity
QVQLVESGGGLVQAGGSLRLSCAASGPTFTYNAMGWYRQAPGKERELVATINSVDSTYADSVKGRFTISRDNAKNTVYLQMNSMKPEDTAVYYCNAGFPLSLWLGDYWGQGTQVTVSS	low polyreactivity
QVQLVESGGALVQEGRSLRLSCAASGGTFADYPMGWYRQAPVKERELVAAITNGGSTFYADSVKGRFTSSRDNATNTVYLQMNSLKPDDTAVYYWSAVYLYAYSPYFSAVEMYYWGQGSQVTVSS	low polyreactivity
QVQLVESVVGLVQAGGSLRLSCAASGSTFLPYTMGWYRQAPGKETELVAGISGSGPRTYYADSVKGRFTISRDNAKNTVYLQMNSLKPEDTAVYYCAKKSSYRYGYWGQGTQVTVSS	high polyreactivity
HVQLVESAGGLVQAGGSLRLSCAASGSTIYGYAMGLYRQAPGKERELVAAITGSGGSTYYADSVKGRFTISRDNAKNTVYLQMNSLKPEDTAVYYCNAVRRYGLEYNYWGQGTQVTVSS	high polyreactivity

Sequence	polyreactivity (PSR sort gate)
QVQLVESGGGLVQAGGSLRLSCAASGLTFTYYAMGWYRQSPGKASEFVAAISSSGSDTYYADSVKGRFTISRDNAKNTVYLQMTSQKPEDTAVYYCAAVLTGLSPDFEYEYWGQGTQVTVSS	low polyreactivity
QVQLVESGGGLVQAGGSLRLSCAASGRIFYTYVMGWYRQAPGKERELVAAITRRGGSTNYADSVKGRFTISRDNAKNTVYLQMNSLKPEDTAVYYCAAGTYKGSSVYGMDYWGQGTQVTVSS	high polyreactivity
QVQLVESGGGLVQAGGSLRLSCPASGSNLSRYAMGWYRQAPGKERELVAGITWRGGSTYYADSVKGRFTISRDNAKNTVYLQMNSLKPEDTAVYYCARRYGGYKWVRAYYYWGQGTQVTLSS	high polyreactivity
QVQLVESGGGLVQAGGSLRLSCAASGSIFTPNVKGRYRQAPGKERELVAAISQSGGSTFYADSVKGRFSFSRDNAKKTVYLQMNSLKPEDTAVYYCASEYYGPVYDLDFDYWGQGTQVTVSS	low polyreactivity
QVQLVESGGGLVQAGGSLRLSCAASGRTFSRYAMGWYRQAPGKERELVAAISYSGGRTYYADSVKGRFTISRDNAKNTVYLQMNSLKPEDTAVYYCAASWPGHTVDYDYWGQGTQVTVSS	high polyreactivity
QVQLVESGGCLVQAGGSLRLSCPASGSTIGKYAMGWYRQAPRKERELFATITVSGGNTNYADSVKGRITISRDNAKITVYLQMNSLKPEDTAVYYCAARKYVAGHKYIMKYWGQGTQVTVSS	low polyreactivity
QVQLVESGGGLVQAGGSLRLSCAASGSIFYGNTMGWYRQAPGKERELVAAITWSGDSTYYADSVKGRFTISRDIAKNTVYLQMISLKPEDTALYYCNADQTGVYYAGEGNHWGQGTQVSVSS	low polyreactivity
QVQLVESGGGLVQAGGSLRLSCAASGSTFPYYAMGWYRQATGKERELVAAISSGGRTTYADSVKGRFTISRDNAKNTVYLQMNSLKPEDTAVYYCNRRYTHGGFSKYEYWGQGTQVTVSS	high polyreactivity
QVQLVESGGGLVQAGGSLRLSCAASGNIYDVYAMGWYRQAPGKERELVADIDRGGTTYADSVKGRFTISRDNAKNTVYLQMNSLKPEATAVYYCAADYVQGFGFYYQWHSDYWGQGTQVTVSS	low polyreactivity
QVQLVESGGGLFQAGGSLRLSCAASGSIFRYNTMGWYRHAPGKESELVARISSGGSTYYADSVKGRFTISRDNAKNTVYLQMNSLKPEDTAVYYCAAVSRHRGWDRYYWGQGTQVTVSS	high polyreactivity
QVQLVESGGGLVQAGGSLRLSCAASGSIFDSKAMGWYRQAPGKERELVAAISQGGDDTYYADSVKGRFTISRDNAKNTVYLQMNSLKPEDTAVYYCAAEFFYITGAYDYWGQGTQVTVSS	low polyreactivity
QVQLVESGGGLVQAGGSLRLRGAASGSIFKGNAMGWYRQAPGKERELVAAITRSVARTYYADSVKVRFTISRDNAKNTVYLQMNSLKPEDTAVYDCAADWYQWGGRYYAPRYYYWGQGTQVTVSS	high polyreactivity
QVQLVESGGGLVQAGGSLRLSCAASGRTFDWYVMGWYRQAPGKERELVATITRDGSTNYADSVKGRFTISRDNAKNTVYLQMNSLKPEDTAVYYCAATVPPLVGYDYWGQGTQVTVSS	low polyreactivity
QVQLVESGGGLVQAGGILSLSCAASGFTFTVYDMGWYRQAPGKERELVAVITSGDGTYYADSVKGRFTISRDNAKNTVYLQMNSLKPEDTAVYYCNARRYSSFRYRFAYDYWGQGTQVTVTS	low polyreactivity
QVQLVESGGGLVQAGGSLRLSCAASGSTLYGYAMGWYRQAPGNERELVAAISVSGGRTYYADSVKGRFTISRDNAKNTVYLQMNSLKPEDTAVYYCAAYGTTRMDYWGQGTQVTVSS	high polyreactivity
QVQLVESGGGLVQAGGSLRLSCAASGRTFKFNAMGWYRQAPGKERELVAGITWTGSTTSYADSVKGRFTISRDNAKNTVYLQMNSLKPEDTAVYYCDADKIRFWYHGFYYRGQGTQVTVSS	low polyreactivity
QVQLVESGGGLVQAGGSLRLSCAAYGGIFPSYAMGWYRQAPGKERELVAAISRTGGSTYYADSVKGRFTISRDNAKNTVYLQMNSLKPEDTAVYYCAAEWAWYLGVYRRDRMYWGQGTQVTVSS	high polyreactivity
QVQLVESGGGLVQAAASLRLSCPASGSTFRFYTMALYIQSPGTESDLVAAITRRGGITFYSDSVKWRFTISRDNAKNTVYLHMNSLKPEDTAVYDCAARFAYWGQDYYFWGQGSQVTVSS	high polyreactivity
QVQLVESGGGLVQAGGSLRLSCAASGSTFVPYAMGWYRQAPGKEREFVAGITWSVGSTYYADSVKGRFTISRDNAKNTVYLQMNSLKPEDTAVYYCNAEIYAYFLWWYGYWGQGTQVTVSS	low polyreactivity
QVQLVESGGGLVQAGGSLRLSCAASGSIFGKNAMGWYRQAPGKERELVAAISFSGGSTYYADSVKGRFTISRDNAKNTVYLQMNSLKPEDTAVYYCAARKYSWYPAGGYDYWGQGTQVTVSS	high polyreactivity
QVQLVESGGGLVQAGGSLRLSCAASGFIFRYYAMGWYRQAPGKERELVAAISRTGGSTYYADSVKGRFTISRDNAKNTVYLQMNSLKPEDTAVYYCAADWWAWRAYYYWGQGTQVTVSS	high polyreactivity
